Results on two molecules are retold here after paper PMC5493754, “Myosin 7 and its adaptors link cadherins to actin” (Nature Communications, 2017).

A value given as a limit tells only on which side of the number the result lay.

Settings in all cases: both partners purified
The target in test [1] is T1, YFP-Harmonin NPDZ1.PDZ2 (human, UniProt Q9Y6N9-1 1-301).
T1 construct: Harmonin-a1 (USH1C), human, residues 1-301 of UniProt Q9Y6N9-1; also called ^YFPNPDZ1.PDZ2; source: E. coli BL21 (DE3) Rosetta, purified (Glutathione Sepharose 4B, size-exclusion chromatography)
T1 sequence (looked up): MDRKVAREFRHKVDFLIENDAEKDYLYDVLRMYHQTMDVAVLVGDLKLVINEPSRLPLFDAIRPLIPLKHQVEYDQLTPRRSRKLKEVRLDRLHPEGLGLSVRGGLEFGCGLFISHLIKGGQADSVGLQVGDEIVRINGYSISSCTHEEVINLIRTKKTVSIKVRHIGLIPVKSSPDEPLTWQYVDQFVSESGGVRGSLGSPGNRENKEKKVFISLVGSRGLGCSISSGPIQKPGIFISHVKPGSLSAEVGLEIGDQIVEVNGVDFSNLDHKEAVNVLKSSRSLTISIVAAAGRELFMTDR
Description: MST; YFP-fused partner constant at 100 nM, non-fluorescent protein titrated (16 two-fold dilutions); 20 mM Hepes pH 7.0, 100 mM NaCl, 1 mM EGTA, 0.5 mM TCEP, 0.05% Tween 20; Monolith NT.115.

Test [2] addresses T2, YFP-Full length (FL)-harmonin (harmonin-a1) (human, UniProt Q9Y6N9-1 1-552).
T2 construct: Harmonin-a1 (USH1C), human, residues 1-552 of UniProt Q9Y6N9-1; also called ^YFPFL (isoA); ^YFPFL; source: E. coli BL21 (DE3) Rosetta, purified (Glutathione Sepharose 4B, size-exclusion chromatography)
T2 sequence (looked up): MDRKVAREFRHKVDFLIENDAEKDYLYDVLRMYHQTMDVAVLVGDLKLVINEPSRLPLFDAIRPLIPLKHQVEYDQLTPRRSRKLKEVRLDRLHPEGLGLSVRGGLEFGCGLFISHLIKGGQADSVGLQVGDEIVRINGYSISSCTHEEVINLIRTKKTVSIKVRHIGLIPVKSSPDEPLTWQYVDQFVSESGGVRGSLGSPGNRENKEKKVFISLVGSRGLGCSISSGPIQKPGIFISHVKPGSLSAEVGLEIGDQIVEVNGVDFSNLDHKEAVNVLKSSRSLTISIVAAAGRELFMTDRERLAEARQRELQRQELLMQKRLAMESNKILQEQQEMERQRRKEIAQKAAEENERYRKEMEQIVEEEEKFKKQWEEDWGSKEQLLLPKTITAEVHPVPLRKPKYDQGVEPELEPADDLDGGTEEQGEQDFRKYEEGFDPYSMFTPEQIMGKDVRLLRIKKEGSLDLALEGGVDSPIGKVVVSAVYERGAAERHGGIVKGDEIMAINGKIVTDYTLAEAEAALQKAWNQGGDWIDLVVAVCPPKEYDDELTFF
Description: MST; as a1 but 150 mM NaCl (for FL-Harmonin-a); YFP-fused partner constant at 100 nM, non-fluorescent protein titrated.

For test [3], the target named is T3, Myo7a MF2 G1982R (deafness mutant) (human, UniProt Q13402-1 1702-2215, G1982R).
T3 construct: Myosin 7a, human, MF2, residues 1702-2215 of UniProt Q13402-1, with a deafness missense mutation; source: E. coli, purified similarly as wild type (Histrap, CaptoQ, gel filtration)
T3 sequence (looked up): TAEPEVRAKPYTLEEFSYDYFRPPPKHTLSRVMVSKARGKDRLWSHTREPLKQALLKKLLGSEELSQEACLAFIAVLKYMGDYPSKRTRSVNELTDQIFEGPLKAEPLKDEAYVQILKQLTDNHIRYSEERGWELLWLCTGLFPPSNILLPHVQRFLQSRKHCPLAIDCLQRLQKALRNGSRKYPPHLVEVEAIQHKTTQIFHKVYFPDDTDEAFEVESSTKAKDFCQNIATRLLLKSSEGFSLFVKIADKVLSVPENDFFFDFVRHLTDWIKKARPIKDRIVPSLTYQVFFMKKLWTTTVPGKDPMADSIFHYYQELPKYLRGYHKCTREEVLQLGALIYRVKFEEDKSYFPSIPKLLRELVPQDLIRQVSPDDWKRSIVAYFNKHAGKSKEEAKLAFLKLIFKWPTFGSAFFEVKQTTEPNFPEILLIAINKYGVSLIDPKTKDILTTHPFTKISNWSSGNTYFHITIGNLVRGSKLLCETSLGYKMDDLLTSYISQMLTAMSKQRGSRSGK
Description: MST; YFP-fused partner constant at 100 nM, non-fluorescent protein titrated (16 two-fold dilutions); 20 mM Hepes pH 7.0, 100 mM NaCl, 1 mM EGTA, 0.5 mM TCEP, 0.05% Tween 20; Monolith NT.115.

Test [4] has as its target T4, Harmonin NPDZ1 (non-fluorescent, as used in MST and SEC-MALS) (human, UniProt Q9Y6N9-1 1-197).
T4 construct: Harmonin-a1 (USH1C), human, N-terminal domain and PDZ1, residues 1-197 of UniProt Q9Y6N9-1; source: E. coli BL21 (DE3) Rosetta, purified (Glutathione Sepharose 4B, size-exclusion chromatography)
T4 sequence (looked up): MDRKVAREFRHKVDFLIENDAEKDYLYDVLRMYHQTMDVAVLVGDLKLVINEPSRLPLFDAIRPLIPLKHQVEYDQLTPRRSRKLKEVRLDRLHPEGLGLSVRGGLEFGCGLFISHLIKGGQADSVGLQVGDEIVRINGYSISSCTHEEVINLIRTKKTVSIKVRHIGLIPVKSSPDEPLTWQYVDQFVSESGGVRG
The description is as above.

Test [5] has as its target T5, Harmonin NPDZ1.PDZ2 (human, UniProt Q9Y6N9-1 1-301).
T5 construct: Harmonin-a1 (USH1C), human, N-terminal domain, PDZ1 and PDZ2, residues 1-301 of UniProt Q9Y6N9-1; source: E. coli BL21 (DE3) Rosetta, purified (Glutathione Sepharose 4B, size-exclusion chromatography)
T5 sequence (looked up): T1 sequence (looked up)
The description is as above.

Test [6] deals with T6, Full length (FL)-harmonin (harmonin-a1) (human, UniProt Q9Y6N9-1 1-552).
T6 construct: Harmonin-a1 (USH1C), human, residues 1-552 of UniProt Q9Y6N9-1; also called FL-harmonin-a; source: E. coli BL21 (DE3) Rosetta, purified (Glutathione Sepharose 4B, size-exclusion chromatography)
T6 sequence (looked up): T2 sequence (looked up)
Kind of test: MST; as a1 but 150 mM NaCl (for FL-Harmonin-a); YFP-fused partner constant at 100 nM, non-fluorescent protein titrated.

B1: Harmonin-a PDZ3c (non-fluorescent, as used in MST) (domain or fragment, human, UniProt Q9Y6N9-1 428-552, looked up)
chain: QDFRKYEEGFDPYSMFTPEQIMGKDVRLLRIKKEGSLDLALEGGVDSPIGKVVVSAVYERGAAERHGGIVKGDEIMAINGKIVTDYTLAEAEAALQKAWNQGGDWIDLVVAVCPPKEYDDELTFF
notes: Harmonin-a1 (USH1C), human, PDZ3 plus C-terminal peptide, residues 428-552 of UniProt Q9Y6N9-1; The methods say only that samples for ITC or crystallisation were digested with TEV protease; also called PDZ3c (isoA); source: E. coli BL21 (DE3) Rosetta, purified (Glutathione Sepharose 4B, size-exclusion chromatography)
As to B1, the Kd (commonly the free concentration of one partner at which half of the binding sites on the other are occupied at equilibrium, for simple one-to-one binding) in test [1] is 5.2 µM; in test [2] it was 1.4 µM.

B2: YFP-Harmonin-a PDZ3c (domain or fragment, human, UniProt Q9Y6N9-1 428-552, looked up)
chain: B1 chain
notes: Harmonin-a1 (USH1C), human, residues 428-552 of UniProt Q9Y6N9-1; also called ^YFPPDZ3c (isoA); source: E. coli BL21 (DE3) Rosetta, purified (Glutathione Sepharose 4B, size-exclusion chromatography)
B2: the dissociation constant (Kd) was over 60 µM in test [3], 14.2 µM in test [4], 3.2 µM in test [5] and 1.9 µM in test [6].
